Patent US11491212

Assays:
[1] = target: plasma purified human AT-III (antithrombin III), in complex with low molecular weight heparin
[2] = target: Antithrombin III (plasma purified human AT-III) in complex with unfractionated heparin; assay: ratio of K0.5 of variant to K0.5 of Catalyst Biosciences WT FIXa, AT-III/UFH inhibition assay

Factor X (FX), P00742, sequence (P00742 whole entry, looked up): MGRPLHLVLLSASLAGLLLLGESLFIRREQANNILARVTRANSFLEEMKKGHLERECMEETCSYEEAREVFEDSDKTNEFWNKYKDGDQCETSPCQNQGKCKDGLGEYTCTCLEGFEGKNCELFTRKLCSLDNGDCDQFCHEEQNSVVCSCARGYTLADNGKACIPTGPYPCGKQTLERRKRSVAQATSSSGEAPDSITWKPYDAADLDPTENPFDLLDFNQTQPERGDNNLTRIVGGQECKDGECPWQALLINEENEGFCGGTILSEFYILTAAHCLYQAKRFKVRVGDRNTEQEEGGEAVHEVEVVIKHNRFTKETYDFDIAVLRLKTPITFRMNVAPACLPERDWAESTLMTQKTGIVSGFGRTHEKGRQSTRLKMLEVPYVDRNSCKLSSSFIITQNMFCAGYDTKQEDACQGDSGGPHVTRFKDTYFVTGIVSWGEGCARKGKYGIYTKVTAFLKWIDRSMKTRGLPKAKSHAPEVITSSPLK
Factor X, P00742, sequence (P00742 whole entry, looked up): as above

| Protein | KM (Factor X (FX), P00742) [µM] | K0.5-mut/K0.5-wt (against Catalyst Biosciences WT FIXa), AT-III/LMWH [1] [fold] | KM of FX activation by FIXa in the Xase complex (FVIIIa, PC/PS vesicles, Ca2+); fluorogenic Spectrafluor FXa assay (Factor X, P00742) [µM] | K0.5-mut/K0.5-wt [2] |
| --- | --- | --- | --- | --- |
| FIXa-K293E/R338E/R403E (protein) chain 1: not shown chain 2: not shown | 0.05 | 14.2 | 0.05 |  |
| FIXa variant R318Y/R338E/E410N/T412V (protein) chain 1: not shown chain 2: not shown |  |  |  | > 517 |
